Ends that are not written are not given here. maleimide monolayer = not defined here
B1: GHHLGGADQAGKVC (SEQ ID NO: 71), scrambled peptide immobilized on a self-assembled monolayer (peptide)
peptide: GHHLGGADQAGKVC-NH2
modifications: not fully specified (residue 14); also: C-terminal Cys thiol linked to maleimide of monolayer
notes: Control
B2: QAGDVC (SEQ ID NO: 16), immobilized on a self-assembled monolayer (peptide)
peptide: QAGDVC-NH2
modifications: not fully specified (residue 6); also: C-terminal Cys thiol linked to maleimide of monolayer
notes: also called 0.5% QAGDVC SAM
B3: KQAGC (SEQ ID NO: 20), immobilized on a self-assembled monolayer (peptide)
peptide: KQAGC-NH2
modifications: not fully specified (residue 5); also: C-terminal Cys thiol linked to maleimide of monolayer
notes: also called 0.5% KQAGC SAM
B4: KQAGDC (SEQ ID NO: 19), immobilized on a self-assembled monolayer (peptide)
peptide: KQAGDC-NH2
modifications: not fully specified (residue 6); also: C-terminal Cys thiol linked to maleimide of monolayer
notes: also called 0.5% KQAGDC SAM

How the values were obtained:
[1] = test system: αIIbβ3 CHO K1 cells; assay: Cell adhesion assay: αIIbβ3 CHO K1 cells on SAMs presenting immobilized peptides; type: cell-based, human; conditions: 0.5% peptide SAM; in presence of 300 μM cRGDFG
Description: Monolayers were prepared as described (Houseman, et al., 2003). Glass coverslips were sonicated for 30 minutes in deionized ultrafiltered (DIUF) water and then 30 minutes in ethanol and then dried under a stream of nitrogen. Titanium (4 nm) and then gold (29 nm) were evaporated onto the coverslips using an electron beam evaporator (Boc Edwards) at a rate of 0.05-0.10 nm/s and at a pressure of 1 μTorr. The gold-coated coverslips were immersed in an ethanolic solution of maleimide-terminated disulfide (1%) and tri(ethylene glycol)-terminated disulfide (99%) overnight at room temperature. The total disulfide concentration was 1 mM. The substrates were washed with DIUF water, ethanol and then dried under a stream of nitrogen.
The pcDNA3.1 vectors that express human αIIb or β3, respectively, have been described previously (see e.g., Litvinov et al. (2006) Biochemistry, 45: 4957-4964). CHO K1, BHK 21 and HT1080 cells were purchased from ATCC. All CHO cells were cultured at 37° C. and 5% CO2 using F12K medium supplemented with 10% FBS and pen/strep. […] CHO K1 cells were transfected with αIIb and β3 cDNA with FuGENE following the supplier's protocol. Transfected cells were selected with 1 mg/mL zeocin and 1 mg/mL geneticin.
Cysteine-terminated peptides were immobilized onto maleimide-presenting SAMs by adding 40 μL of 1 mM peptide solution to the biochip and incubating at 37° C. for 1 hour. Substrates were rinsed with DIUF water and ethanol and dried under a stream of nitrogen. αIIbβ3 CHO K1 cells were detached from culture plates with 1 mM EGTA/2 mM EDTA in PBS (phosphate-buffered saline), rinsed with serum-free F-12K medium, centrifuged and resuspended in serum-free F-12K medium supplemented with cRGDFG (SEQ ID NO: 12) (300 μM) and 1× penicillin/streptomycin. After 15-minute of incubation, cells (200,000/mL) were added to substrates in 24-well culture plates. After 2 hour incubation at 37° C. and 5% CO2, media was exchanged for F-12K medium supplemented with 10% FBS, 1× penicillin/streptomycin and cRGDFG (SEQ ID NO: 12) (300 μM). After 2 hours, the substrates were washed gently with warm PBS, and adherent cells were immediately fixed with 4% formaldehyde for 30 minutes, visualized with a 20× objective of a Zeiss Axiovert 200 inverted microscope, and photographed. For cell adhesion assays mediated by Ac-GXGDSC (SEQ ID NO: 26), αIIbβ3 CHO K1 cells were incubated on a 5×4 circle (1 mm diameter) array for 1 hour with serum-free F-12K medium supplemented with cRGDFG (SEQ ID NO: 12) (300 μM) and 1× penicillin/streptomycin, followed by media exchange to F-12K medium supplemented with 10% FBS, 1× penicillin/streptomycin and cRGDFG (SEQ ID NO: 12) (300 μM. The substrates were washed with warm PBS, and adherent cells were immediately fixed and permeabilized with 4% formaldehyde and 0.5% Triton-X for 30 minutes. Fixed cells were stained with DAPI, visualized and photographed with a 20× objective as described. The number of adherent cells per field of view was counted using Image J software. Cells were counted in at least three fields for each circle, and each experiment was repeated 3 times. The degree of adhesion is reported as a percentage of cells that adhere relative to control experiments with the peptide Ac-GRGDSC (SEQ ID NO: 28).
Monolayers were prepared that presented a mixture of maleimide groups and tri(ethylene glycol) groups with the former present at a density of 0.5% (relative to total alkanethiolate). The monolayers were treated with cysteine-terminated peptides to immobilize the ligands (FIG. 1A). In each case mass spectrometry was used to verify immobilization of the peptides in high yield (Su et al., 2002).
The adhesion and spreading of αIIbβ3 CHO K1 cells to monolayers presenting GRGDSC (SEQ ID NO: 11), HHLGGAKQAGDVC (SEQ ID NO: 21) and a mixture of both peptides was compared. […]

[2] = molecular target: T1, human αIIbβ3 integrin on transfected CHO K1 cells (human, UniProt P08514 32-1039; P05106 27-788); assay: adhesion of αIIbβ3 CHO K1 cells to the peptide monolayer, 300 µM cRGDFG present
T1 construct: whole, on cells; CHO K1 cells transfected with human αIIb and β3 cDNA; about 30% of the cells expressed the receptor; also called platelet receptor; platelet integrin
Description: (§1) For cell adhesion assays mediated by Ac-GXGDSC (SEQ ID NO: 26), αIIbβ3 CHO K1 cells were incubated on a 5×4 circle (1 mm diameter) array for 1 hour with serum-free F-12K medium supplemented with cRGDFG (SEQ ID NO: 12) (300 μM) and 1× penicillin/streptomycin, followed by media exchange to F-12K medium supplemented with 10% FBS, 1× penicillin/streptomycin and cRGDFG (SEQ ID NO: 12) (300 μM. The substrates were washed with warm PBS, and adherent cells were immediately fixed and permeabilized with 4% formaldehyde and 0.5% Triton-X for 30 minutes. Fixed cells were stained with DAPI, visualized and photographed with a 20× objective as described. The number of adherent cells per field of view was counted using Image J software. Cells were counted in at least three fields for each circle, and each experiment was repeated 3 times. The degree of adhesion is reported as a percentage of cells that adhere relative to control experiments with the peptide Ac-GRGDSC (SEQ ID NO: 28).
CHO K1 cells were used that were transfected with the αIIbβ3 receptor, as described previously (Salsmann et al., 2005). Cells were transfected with pcDNA3.1 vectors that coded for αIIb and β3 using FuGENE6 and analyzed by FACS after labeling with the PAC-1 (anti-αIIbβ3) and H-96 (anti-β3) antibodies. Approximately 30% of the cells expressed the receptor (FIG. 2A). Because the CHO K1 cells also express αv and α5 integrins on their surfaces, adhesion experiments were performed in the presence of the cyclic peptide cRGDFG (SEQ ID NO: 12), where F is a D amino acid. […] Treatment of transfected cells with both the cyclic peptide inhibitor and the PAC-1 antibody, however, prevented cell adhesion to the monolayer (FIG. 2F).

[3] = molecular target: T1, human αIIbβ3 integrin on transfected …; assay: Ac-GXGDSC peptide array, adhesion of αIIbβ3 CHO K1 cells
Description: as §1, with “After 15-minute of incubation, cells (200,000/mL) were added to substrates in 24-well culture plates. After 2 hour incubation at 37° C. and 5% CO₂, media was exchanged for F-12K medium supplemented with 10% FBS, 1× penicillin/streptomycin and cRGDFG (SEQ ID NO: 12) (300 μM). After 2 hours, the substrates were washed gently with warm PBS, and adherent cells were immediately fixed with 4% formaldehyde for 30 minutes, visualized with a 20× objective of a Zeiss Axiovert 200 inverted microscope, and photographed. For” for “For”
To further assay the binding of peptide ligands to the […] integrin for XGD peptide ligands, an array was used to assess the adhesion of cells to peptides having the arginine residue substituted with each amino acid other than cysteine (e.g., A, D, E, F, G, H, I, K, L, M, N, P, Q, R, S, T, V, W, and Y). The library of Ac-GXGDSC (SEQ ID NO: 26) peptides was synthesized and immobilized in an array with each peptide occupying a 1 mm diameter region of the monolayer (FIG. 61). A suspension of αIIbβ3 CHO K1 cells was applied to the entire array and cells were allowed to attach to regions presenting the various peptides. The substrates were then rinsed and stained with DAPI, and the cells were counted to determine the relative efficiency of cell attachment to peptides in the library.

Molecule | adhesion of αIIbβ3 CHO K1 cells to monolayer presenting the peptide [1] | binding result [2] | other results
GHHLGGADQAGKVC (scrambled peptide) | lack of cell attachment | – | –
GDVC (completely synthesized peptide) | failed to adhere | – | –
KQAGC (completely synthesized peptide) | failed to adhere | – | –
KQAGDC (completely synthesized peptide) | adhered | – | –
QAGDVC (completely synthesized peptide) | adhered | – | –
GGAKQAC (completely synthesized peptide) | failed to adhere | – | –
KQAGDVC (completely synthesized peptide) | adhered and spread | – | –
AGDVC (completely synthesized peptide) | adhered | – | –
HHLGGAC (completely synthesized peptide) | failed to adhere | – | –
KQAGDVC(maleimide monolayer)-NH2 (reading uncertain, also called 0.5% KQAGDVC SAM) [KQAGDVC (SEQ ID NO: 14), immobilized on a self-assembled monolayer] | – | binds | –
GGRDGSC(maleimide monolayer)-NH2 (reading uncertain, Control; also called 0.5% GGRDGSC) [GGRDGSC (SEQ ID NO: 70), scrambled peptide immobilized on a self-assembled monolayer] | – | no binding | –
AGDVC(maleimide monolayer)-NH2 (not fully specified; reading uncertain, also called 0.5% AGDVC SAM) [AGDVC (SEQ ID NO: 17), immobilized on a self-assembled monolayer] | – | binds | –
B1 | – | no binding | –
GGAKQAC(maleimide monolayer)-NH2 (reading uncertain, also called 0.5% GGAKQAC SAM) [GGAKQAC (SEQ ID NO: 15), immobilized on a self-assembled monolayer] | – | no binding | –
HHLGGAC(maleimide monolayer)-NH2 (reading uncertain, also called 0.5% HHLGGAC SAM) [HHLGGAC (SEQ ID NO: 13), immobilized on a self-assembled monolayer] | – | no binding | –
GDVC(maleimide monolayer)-NH2 (reading uncertain, also called 0.5% GDVC SAM) [GDVC (SEQ ID NO: 18), immobilized on a self-assembled monolayer] | – | no binding | –
B2 | – | binds | –
B3 | – | no binding | –
Ac-GRGDSC(maleimide monolayer)-NH2 (not fully specified; printed as Ac-GRGDSC; reading uncertain, also called 0.5% Ac-GRGDSC) [Ac-GRGDSC (SEQ ID NO: 28), immobilized on a monolayer array] | – | – | binding result [3]: binds
B4 | – | binds | –
Ac-GYGDSC(maleimide monolayer)-NH2 (reading uncertain; also: printed as Ac-GXGDSC, Member of the Ac-GXGDSC library) [Ac-GXGDSC (SEQ ID NO: 26) with X = Y, immobilized on a monolayer array] | – | – | binding result [3]: no binding

From patent US20120252730A1, “PLATELET AGGREGATION INHIBITORS” (UNIVERSITY OF CHICAGO, priority 2009, published 2012)
